Test: soluble on expression in E. coli; label from the status in PepcDB or PDB records

Sequence	soluble on expression in E. coli
MSLHDYCLPCPTSLSGIAEVNPMSKPLVRWPINPLRTAVIVVDMQKVFCEPTGALYVKSTADIVQPIQKLLQAARAAQVMVIYLRHIVRGDGSDTGRMRDLYPNVDQILARHDPDVEVIEALAPQSDDVIVDKLFYSGFHNTDLDTVLRARDVDTIIVCGTVTNVCCETTIRDGVHREYKVIALSDANAAMDYPDVGFGAVSAADVQRISLTTIAYEFGEVTTTAEVIRREGHHHHHH	not soluble
MKFLTFVNRVDWWLNVKKLLMGNEAIAYGALEAGVSFATGYPGTPSTEVIETIARLKPEVFAEWAPNEKVALEEAAGVSYAGLRSLVTMKCVGLNVAADPLMSLAYSGVEGGLVILVADDPGPHTSQTEQDDRYYGKLALLPVLEPYDPQEAHDLIIYAYELSEKYKVPIIFRTTTRVNHTTADVEVGEFKELKREPKFKKDIERYVRASMEGNRKRHKWLNETLKRIEEEFNTLRFNWIEGEGRVGIIVEGAPYNYVKEVVPQIEEDFKILKLSTPHPLPRKLVVEFLRSVDVALVVEEGAPFLEEEIKVVAYEEGLNVPIYGKRTGHLPLEGELTPRLVRNAILKLLGKEREEVKLPKEVEEAKALAPKRPPVMCPGCPHRGTYRALLDALRELGYGKFDIPIHGDIGCYALSLLPPLEAIWTEFVMGASISLANGQSVAMGKKIVATIGDSTFFHNGIQPLIDAVYKDLDVLVIILDNRTTAMTGHQPHPGTGGSETGRKFREIDIESVVRGIGVKYVKTVDPYNLKETKEAIKEAMKVKGPAVIIAKRECVIPVIRRGEIGEIPVVVEDRCTGCKACILLTGCPALVYEPEKKKVRIDPLICTGCGVCNQLCPFDAI	not soluble
MNIQWFPGHMAKTRRILAENLKMVDVVVELLDARIPASSKNPEIDGIVKNKPKIVVLNKADLADEKISNEWSKWYNSQGYATIFIDSIKGTGIKQLKDQMRDIMKDRIERDRQRGRIFRPIRTMIVGIPNVGKSSLINKIAGKKSAVTGDRPGVTRNKQWINVNNEIQLMDTPGILWPKFEDKTVGINLAVTGAIKDEIIDTVELASILLEHLSKTYPENIKKRYKLESLQDKKGYELLEEAGKKRGCIISGGEVDLTRIAAIVLDEFRGGKIGRITLERPGDAVQELVAD	not soluble
MGSDKIHHHHHHMRLKITHRTEYRYDAPVQYLLQRLRLLPVSGQTQTVLSWALKVEGAREEVRFTDHYGNDTRLLSVEGDHDFITVEASGEVVTRDTSGVCGSHQGFAPLWLFAQETPLTAIGGGIRKLAEAVGTGTDIERLHRLMAMIGERVAYTPGSTKATTPAEEALALKTGVCQDHSHIFAAAARAMGFPSRYVSGYLMMDAVEQAASHAWAEAHVPGLGWVAFDPANGISPDERYVKVATGRDYRDASPVSGIRQGQAEERLAVTVTVEQ	not soluble
MQKQNIVILGSTGSIGKSTLSVIENNPQKYHAFALVGGKNVEAMFEQCIKFRPHFAALDDVNAAKILREKLIAHHIPTEVLAGRRAICELAAHPDADQIMASIVGAAGLLPTLSAVKAGKRVLLANKESLVTCGQLFIDAVKNYGSKLLPVDSEHNAIFQSLPPEAQEKIGFCPLSELGVSKIILTGSGGPFRYTPLEQFTNITPEQAVAHPNWSMGKKISVDSATMMNKGLEYIEARWLFNASAEEMEVIIHPQSIIHSMVRYVDGSVITQMGNPDMRTPIAETMAYPHRTFAGVEPLDFFKIKELTFIEPDFNRYPNLKLAIDAFAAGQYATTAMNAANEIAVQAFLDRQIGFMDIAKINSKTIERISPYTIQNIDDVLEIDAQAREIAKTLLRE	not soluble
MRSMTDVRRYWISLLRKICEMPLELCASDRLKKSMPVEGKKSEERRKFTHLELLGRIFCGISPFLELNRESPSTDPEERKIATRLSEFAVKSLDVATNPNCKDYMNFKEGRQPLVDAAFLVEAILRAPKVLWEDLDVSTKKRLIRELKATRKIEPYFSNWLLFSAMIETFFFFAGEEWDSTKVDLILKNVESWYKGDGAYGDGPFFRWDYYNSFVIYPMTIDVLRIISEEKTEWKELYVKVLRRAQRYAVVLERMISPEGTFPIIGRSITYRTAVFHLLSQLSLLHLLPASLSPAQVRCALTAVLRRIFENPSTFDENGWLKIGVIGSQPSLGEEYITTGSLYLCTTVFLPLGLPTSDPFWRDPCKKWTNKKVWEGEDVAPDRALEDLEHHHHHH	soluble
MLILSFLCPAFLNAQIVTDERMFSFEEPQLPACITGVQSQLGISGAHYKDGKHSLEWTFEPNGRLELRKDLKFEKKDPTGKDLYLSAFIVWIYNEQPQDAAIEFEFLKDGRKCASFPFGINFKGWRAAWVCYERDMQGTPEEGMNELRIVAPDAKGRLFIDHLITATKVDARQQTADLQVPFVNAGTTNHWLVLYKHSLLKPDIELTPVSDKQRQEMKLLEKRFRDMIYTKGKVTEKEAETIRKKYDLYQITYKDGQVSGVPVFMVRASEAYERMIPDWDKDMLTKMGIEMRAYFDLMKRIAVAYNNSEAGSPIRKEMRRKFLAMYDHITDQGVAYGSCWGNIHHYGYSVRGLYPAYFLMKDVLREEGKLLEAERTLRWYAITNEVYPKPEGNGIDMDSFNTQTTGRIASILMMEDTPEKLQYLKSFSRWIDYGCRPAPGLAGSFKVDGGAFHHRNNYPAYAVGGLDGATNMIYLFSRTSLAVSELAHRTVKDVLLAMRFYCNKLNFPLSMSGRHPDGKGKLVPMHYAIMAIAGTPDGKGDFDKEMASAYLRLVSSDSSSAEQAPEYMPKVSNAQERKIAKRLVENGFRAEPDPQGNLSLGYGCVSVQRRENWSAVARGHSRYLWAAEHYLGHNLYGRYLAHGSLQILTAPPGQTVTPTTSGWQQEGFDWNRIPGVTSIHLPLDLLKANVLNVDTFSGMEEMLYSDEAFAGGLSQGKMNGNFGMKLHEHDKYNGTHRARKSFHFIDGMIVCLGSDIENTNMDYPTETTIFQLAVTDKAAHDYWKNNAGEGKVWMDHLGTGYYVPVAARFEKNFPQYSRMQDTGKETKGDWVSLIIDHGKAPKAGSYEYAILPGTDRKTMTAFAKKPAYSVLQQDRNAHILESPSDRITSYVLFETPQSLLPGGLLQRTDTSCLVMVRKESADKVLLTVAQPDLALYRGPSDEAFDKDGKRMERSIYSRPWIDNESGEIPVTVTLKGRWKVVETPYCKVVSEDKKQTVLRFLCKDGASYEVELEKLEHHHHHH	soluble
MGSDKIHHHHHHMENYTHWFYLESYTFLFYSKNQYVIYNTLNSTYIDCSLYGKTINTVLSILHNTNKTYCVGIYEYQLRDSQFTEFIKKIRNTFSGDIIKNIRGIPPFISKPILRILHHPNNPKTKEYNLLGENALFHLHEVTFYLENQGFDLNPMYKDCYKQFLYPTYTEKQKLSHAKYLEIIEQLSICQIDKINIIPATIEKKELFSYLLSLSRQYSIKTQIILPYKKYNKEDLKQLLTNPQFSIMIMVHLPVDYEELNSYINLFNEYNITWSLIASNKNDVIFLSKNNLGKFTNVDYIPWYTGDNMDFFKEYIYNDFKDIIEQKNTKQHIFRKQILNDNLFGKLTIFPTGEVYSNVNFPTIGNIQDQKLSEIVYSEIENYFKPWFFTRDYVSCKNCVNKYLCPSISNYEIVANEYNMCYLNQ	not soluble
MAAKQGESDPERKETRQKVDDDRKHEIEAAIVRIMKSRKKMQHNVLVAEVTQQLKARFLPSPVVIKKRIEGLIEREYLARTPEDRKVYTYVA	soluble
KQQKDGSWLMDALIPLNELKYKLGLTTIEGEESEGFQTLNGFLTWWLGRLPHAGELVDYEGWQFEVLNVKHHRIVQVKVSRETESETTTDTNDGDANP	not soluble
MGSDKIHHHHHHVSRLDQLNDWLHQALQGKPHHLTTASADASFRRYFRVHLADGATLIAMDAPPPQEDCRPFVKVAALFEQAGLNVPKVLAQDVENGFLLLTDLGAQTFLDVLNEDNADTLFRDAIDALVTWQLASRPGVLPAYDEALLRRELCLFPDWYVARHLNVELSESQRSTLENAFSTIVRYNLAQPSVYVHRDYMPRNLMISTPSPGILDFQDAVYGPISYDVASLFKDAFISWQEERVLDGTIRYWEKARKAGLPVRSDFGDFYRDFEWMGLQRHLKVLGIFARIHYRDGKPKYLADTPRFMNYVRQVCVRYGELRPLLRLLDELEKREPQFGYTF	not soluble
MGSDKIHHHHHHMAAKIITVFNQKGGCGKTTVSMHLAGTLGLRGARSMLVDMDEQGTATRWAAQASDERPFPASVIGLAPSGGAMHREVRKFVQDYDYIVVDCPPAVHSAAPSSALLISDLAIIPVVPSPPDLWAAVAAKTLAQHAQVQNETLLIRVMANMVQRRVSIARQAIEILGDDGEVPLLNSMIGSRSAFRECQAIGCTVHGVAGAREAVQEVDMMVDEVLSLIEH	not soluble
MKIVEALKANGVEVIITEKADVLIKNFENAHISYALSADEKTGVIFFGGFEEKMKAGLAEHHVAILKEEDVKENILLAYEHARRKSDVLFASSSASKTADIEGKTVFGMHGPRKFTVVLVVRK	not soluble
MSIRDWPEAERPREKLLEQGAAALSDAELLAIFLRTGVTGCSAVELSRRLLSEFGGLRALLEADLASFCGHLGLGVAKYAQLQAVLEMGRRHLAERLRRDSILESPQAVRDYLKARLRHEQHEVFACLFLDTRHRVLSFEVLFQGSIDGASVYPRQVVKRTLAHNAAALILTHNHPSGDARPSLADRQLTARLKEALALIDVRVLDHFIIGDGEPLSLAEYGWL	not soluble
MGSDKIHHHHHHMFAERLERARKAAGLSMNALANEVGLSANAIKKYEHGTAMPSSSNLLKLAKALDVRTEYFFRPTKVKLEGVEYRKRASTPKKVLDRINGDVLEQAERWQELLELYPDSVKPIPEFTLPNELPEQITSIEQVEDLAIQMRHAWDLGLNPIHDMIDTLEAKGVMIITTDVETDKKFDGLAGKIGSTPVVVISTAQSGDRQRFTLAHELGHLVVHGRLVEALDEEKACNTFAGAFLLPTQTLIEHLGEKRRHIEPRELLMLKHEYGISMLAALFRAGQCGIITPATQKNLFMLFSKNGWRTEEPGKAYPHESTYLHKQLVYRALGEEYIGESKAAELLGMSVSSFHKERKLEVPIQSQLALEAKGAAASN	not soluble
MTEIKYKVITKDAFALPYTIIKAKNQPTKGVIVYIHGGGLMFGKANDLSPQYIDILTEHYDLIQLSYRLLPEVSLDCIIEDVYASFDAIQSQYSNCPIFTFGRSSGAYLSLLIARDRDIDGVIDFYGYSRINTEPFKTTNSYYAKIAQSINETMIAQLTSPTPVVQDQIAQRFLIYVYARGTGKWINMINIADYTDSKYNIAPDELKTLPPVFIAHCNGDYDVPVEESEHIMNHVPHSTFERVNKNEHDFDRRPNDEAITIYRKVVDFLNAITMV	soluble
MHHHHHHSSGVDLGTENLYFQSNAMEPFKHPIAILGAGSWGTALALVLARKGQKVRLWSYESDHVDEMQAEGVNNRYLPNYPFPETLKAYCDLKASLEGVTDILIVVPSFAFHEVITRMKPLIDAKTRIAWGTKGLAKGSRLLHEVVATELGQVPMAVISGPSLATEVAANLPTAVSLASNNSQFSKDLIERLHGQRFRVYKNDDMIGVELCGSVKNILAIATGISDGLKLGSNARAALITRGLTEMGRLVSVFGGKQETLTGLAGLGDLVLTCTDNQSRNRRFGLALGEGVDKKEAQQAIGQAIEGLYNTDQVHALAQKHAIEMPLTFQVHRILHEDLDPQQAVQELLERSPKAE	soluble
SSSEQKSQHCKPEEGVEAQEEALGLVGAQAPTTEEQEAAVSSSSPLVPGTLEEVPAAESAGPPQSPQGASALPTTISFTCWRQPNEGSSSQEEEGPSTSPDAESLFREALSNKVDELAHFLLRKYRAKELVTKAEMLERVIKNYKRCFPVIFGKASESLKMIFGIDVKEVDPTSNTYTLVTCLGLSYDGLLGNNQIFPKTGLLIIVLGTIAMEGDSASEEEIWEELGVMGVYDGREHTVYGEPRKLLTQDWVQENYLEYRQVPGSNPARYEFLWGPRALAETSYVKVLEHVVRVNARVRIAYPSLREAALLEEEEGV	soluble

Source: the DeepSol protein solubility set
